According to publication PMC9323955, “Synthesis and Evaluation of Small Molecule Drug Conjugates Harnessing Thioester-Linked Maytansinoids” (Pharmaceutics, 2022):

Experiments:
[1] = Pharmacokinetic study, single intravenous dose; assay type: in vivo, male ICR mice
Description: Six-week-old male ICR mice from BioLASCO Taiwan were divided into three groups and administered intravenously at a 5 mg/kg dose. Blood samples were taken from each animal at time points 0.003, 0.083, 0.25, 0.5, 1, 2, 4, 6, 8, and 24 h and stored on ice (0–4 °C). The plasma was separated from the blood by centrifugation (in a Beckman Allegra 6R at 3000 rpm, 4 °C for 15 min) and stored under freezing conditions (−20 °C). Plasma and harvested tumor samples were stored at −80 °C until use. Fifty microliters of mouse plasma or tumor samples homogenized with ddH2O at a dilution ratio of 1:3 (w/v) with MiniBeadbeater-16 (BioSpec Products Inc., Bartlesville, OK, USA) were mixed with 100 μL of acetonitrile containing 250 ng/mL BPR0L187. The mixture was vortexed for 30 s and then centrifuged at 15,000× g for 20 min. The supernatant was transferred to a clean test tube, and 15 µL of supernatant was injected into the LC/MS/MS. Plasma samples were analyzed by liquid chromatography-tandem mass spectrometry (LC/MS/MS). The chromatography system was an Agilent 1200 series liquid chromatography system and an Agilent ZORBAX Eclipse XDB-C8 column (5 µm, 3.0 × 150 mm) connected with an MDS Sciex API4000 tandem mass spectrometer equipped with an ESI in forwarding scan mode at 600 °C. Data acquisition was performed by multiple reaction monitoring (MRM). A gradient system was used to separate the analytes from the IS. Mobile phase A was a 10 mM aqueous ammonium acetate solution containing 0.1% formic acid. Mobile phase B was acetonitrile. The gradient profile was as follows. 0.0–1.1 min, 50% B; 1.2–3.7 min, 55% B-90% B; 3.8–5.0 min, 90% B-50% B. The flow rate was 1.5 mL/min. The autosampler was set to inject 15 µL of the sample every 5 min.

[2] = PS SPR binding assay (Biacore T200, L1 chip); details: DOPC/DOPS (3:1, v/v) liposomes on L1 chip, 25 °C
Description: Phospholipids, 1,2-dioleoyl-sn-glycero-3-phosphocholine (DOPC) and 1,2-dioleoyl-sn-glycero-3-[phosphate-L-serine] (DOPS) were obtained as chloroform solutions from Avanti Polar Lipids (Alabaster, AL, USA). These stock solutions were mixed in the specified proportions. A 0.4 mL aliquot of the lipid solution at a 10 mg/mL concentration was added to a round bottom flask and evaporated under a stream of N2 to provide a thin lipid film. The lipid films were rehydrated in PBS buffer for at least 1 h at room temperature. The resulting suspension was extruded through a 100 nm polycarbonate filter using an Avanti MiniExtruder according to the manufacturer’s instructions. Zeta potential (ZP) and liposome size distribution were recorded by dynamic light scattering (DLS) and microelectrophoresis using a Zetasizer Nano ZS instrument. The binding kinetics between conjugates and liposomes were recorded at 25 °C using a Biacore T200 biosensor equipped with an L1 sensor chip (GE Healthcare, Chicago, IL, USA). The new sensor chip was pretreated with running buffer (5% DMSO in phosphate buffered saline (PBS) at a pH of 7.4) and two consecutive 30 s pulses of 2:3 v/v 50 mM HCl/isopropanol at a flow rate of 30 μL/min. New liposome capture plates were prepared for each binding cycle. In PBS buffer, liposomes are diluted to 0.5–1 mM and captured to saturation in isolated flow cells at 2–5 μL/min (30–150 s). […]

[3] = Plasma stability, 24 h incubation with plasma (HPLC); assay type: in vitro ADME
Description: Zn8_DM1: 0H VS. 24H in plasma.
Zn10_DM4: 0H VS. 24H in plasma.
Supporting Figure S1. Incubation of Linker-drug 3 and 4, conjugates Zn8_DM1 and
Zn10_DM4, DM1 and DM4 with plasma for 24 hrs. HPLC condition is listed below. […]

[4] = male ICR mice (n = 3), 5 mg/kg i.v.

COc1cc2cc(c1Cl)N(C)C(=O)CC(OC(=O)C(C)N(C)C(=O)CCSC(=O)c1ccc(CN(CCOCCOCCNC(=O)c3ccc(CN(CCCCOc4cc(CN(Cc5ccccn5)Cc5ccccn5)cc(CN(Cc5ccccn5)Cc5ccccn5)c4)C(=O)C4(c5ccc(Cl)cc5)CCCCC4)cc3)C(=O)C3(c4ccc(Cl)cc4)CCCCC3)cc1)C1(C)OC1C(C)C1CC(O)(NC(=O)O1)C(OC)C=CC=C(C)C2.O=[N+]([O-])[O-].O=[N+]([O-])[O-].O=[N+]([O-])[O-].O=[N+]([O-])[O-].[Zn+2].[Zn+2] (stereo not shown) [Zn8_DM1]
AUC (0–24 h), intact conjugate [1, 4]: Intact Conjugate: 161,538 ng/mL·h
CL [1, 4]: 0.5 mL/min/kg
Vss [1, 4]: 0.6 L/kg
AUC (0–24 h), released payload (DM1 or DM4) ([1]; male ICR mice (n = 3), 5 mg/kg i.v. of the conjugate): DM1: 500 ng/mL·h
AUC ratio between intact conjugate and released payload ([1]; within 24 h in circulation, 5 mg/kg i.v.): large AUC ratio
association with PS-coated liposomes (SPR) [2]: still allowed recognition
cleavage of the maytansinoid after incubation with plasma [3]: No cleavage
